Source: article PMC11574045, “A cofactor-induced repressive type of transcription factor condensation can be induced by synthetic peptides to suppress tumorigenesis” (The EMBO Journal, 2024)

Test system: HEK293FT cells transfected with TF library
Experiment: Screening of TF condensates based on fluorescent puncta
Assay type: cell-based
Conditions: Figure 1B numerical data; TF library screen, one value per transcriptional factor
Procedure, shortened: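 HEK293FT cells were reverse-transfected with Flag- or GAL4-tagged TF plasmids (1.6 μg/ml, PEI). After 60 h, cells were cultured 12 h with or without glucose, then fixed and immunostained with anti-Flag or anti-GAL4 and Alexa 488 secondaries. Fluorescent puncta were imaged over fifty random fields per well by high-content imaging.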

B1: TRPS1 (protein, UniProt Q9UHF7 1-1281, looked up)
Zinc finger transcription …: MVRKKNPPLRNVASEGEGQILEPIGTESKVSGKNKEFSADQMSENTDQSDAAELNHKEEHSLHVQDPSSSSKKDLKSAVLSEKAGFNYESPSKGGNFPSFPHDEVTDRNMLAFSSPAAGGVCEPLKSPQRAEADDPQDMACTPSGDSLETKEDQKMSPKATEETGQAQSGQANCQGLSPVSVASKNPQVPSDGGVRLNKSKTDLLVNDNPDPAPLSPELQDFKCNICGYGYYGNDPTDLIKHFRKYHLGLHNRTRQDAELDSKILALHNMVQFSHSKDFQKVNRSVFSGVLQDINSSRPVLLNGTYDVQVTSGGTFIGIGRKTPDCQGNTKYFRCKFCNFTYMGNSSTELEQHFLQTHPNKIKASLPSSEVAKPSEKNSNKSIPALQSSDSGDLGKWQDKITVKAGDDTPVGYSVPIKPLDSSRQNGTEATSYYWCKFCSFSCESSSSLKLLEHYGKQHGAVQSGGLNPELNDKLSRGSVINQNDLAKSSEGETMTKTDKSSSGAKKKDFSSKGAEDNMVTSYNCQFCDFRYSKSHGPDVIVVGPLLRHYQQLHNIHKCTIKHCPFCPRGLCSPEKHLGEITYPFACRKSNCSHCALLLLHLSPGAAGSSRVKHQCHQCSFTTPDVDVLLFHYESVHESQASDVKQEANHLQGSDGQQSVKESKEHSCTKCDFITQVEEEISRHYRRAHSCYKCRQCSFTAADTQSLLEHFNTVHCQEQDITTANGEEDGHAISTIKEEPKIDFRVYNLLTPDSKMGEPVSESVVKREKLEEKDGLKEKVWTESSSDDLRNVTWRGADILRGSPSYTQASLGLLTPVSGTQEQTKTLRDSPNVEAAHLARPIYGLAVETKGFLQGAPAGGEKSGALPQQYPASGENKSKDESQSLLRRRRGSGVFCANCLTTKTSLWRKNANGGYVCNACGLYQKLHSTPRPLNIIKQNNGEQIIRRRTRKRLNPEALQAEQLNKQQRGSNEEQVNGSPLERRSEDHLTESHQREIPLPSLSKYEAQGSLTKSHSAQQPVLVSQTLDIHKRMQPLHIQIKSPQESTGDPGNSSSVSEGKGSSERGSPIEKYMRPAKHPNYSPPGSPIEKYQYPLFGLPFVHNDFQSEADWLRFWSKYKLSVPGNPHYLSHVPGLPNPCQNYVPYPTFNLPPHFSAVGSDNDIPLDLAIKHSRPGPTANGASKEKTKAPPNVKNEGPLNVVKTEKVDRSTQDELSTKCVHCGIVFLDEVMYALHMSCHGDSGPFQCSICQHLCTDKYDFTTHIQRGLHRNNAQVEKNGKPKE
With B1 the “Z score of condensed fraction” value was -0.2124.

B2: TSHZ2 (protein, UniProt Q9NRE2 1-1034, looked up)
Teashirt homolog 2: MPRRKQQAPKRAAGYAQEEQLKEEEEIKEEEEEEDSGSVAQLQGGNDTGTDEELETGPEQKGCFSYQNSPGSHLSNQDAENESLLSDASDQVSDIKSVCGRDASDKKAHTHVRLPNEAHNCMDKMTAVYANILSDSYWSGLGLGFKLSNSERRNCDTRNGSNKSDFDWHQDALSKSLQQNLPSRSVSKPSLFSSVQLYRQSSKMCGTVFTGASRFRCRQCSAAYDTLVELTVHMNETGHYQDDNRKKDKLRPTSYSKPRKRAFQDMDKEDAQKVLKCMFCGDSFDSLQDLSVHMIKTKHYQKVPLKEPVPTISSKMVTPAKKRVFDVNRPCSPDSTTGSFADSFSSQKNANLQLSSNNRYGYQNGASYTWQFEACKSQILKCMECGSSHDTLQQLTTHMMVTGHFLKVTSSASKKGKQLVLDPLAVEKMQSLSEAPNSDSLAPKPSSNSASDCTASTTELKKESKKERPEETSKDEKVVKSEDYEDPLQKPLDPTIKYQYLREEDLEDGSKGGGDILKSLENTVTTAINKAQNGAPSWSAYPSIHAAYQLSEGTKPPLPMGSQVLQIRPNLTNKLRPIAPKWKVMPLVSMPTHLAPYTQVKKESEDKDEAVKECGKESPHEEASSFSHSEGDSFRKSETPPEAKKTELGPLKEEEKLMKEGSEKEKPQPLEPTSALSNGCALANHAPALPCINPLSALQSVLNNHLGKATEPLRSPSCSSPSSSTISMFHKSNLNVMDKPVLSPASTRSASVSRRYLFENSDQPIDLTKSKSKKAESSQAQSCMSPPQKHALSDIADMVKVLPKATTPKPASSSRVPPMKLEMDVRRFEDVSSEVSTLHKRKGRQSNWNPQHLLILQAQFASSLFQTSEGKYLLSDLGPQERMQISKFTGLSMTTISHWLANVKYQLRKTGGTKFLKNMDKGHPIFYCSDCASQFRTPSTYISHLESHLGFQMKDMTRLSVDQQSKVEQEISRVSSAQRSPETIAAEEDTDSKFKCKLCCRTFVSKHAVKLHLSKTHSKSPEHHSQFVTDVDEE
B2 was tested, and the “Z score of condensed fraction” value was -1.212.

B3: TSG101 (protein, UniProt Q99816 2-390, looked up)
Tumor susceptibility gene 101 …: AVSESQLKKMVSKYKYRDLTVRETVNVITLYKDLKPVLDSYVFNDGSSRELMNLTGTIPVPYRGNTYNIPICLWLLDTYPYNPPICFVKPTSSMTIKTGKHVDANGKIYLPYLHEWKHPQSDLLGLIQVMIVVFGDEPPVFSRPISASYPPYQATGPPNTSYMPGMPGGISPYPSGYPPNPSGYPGCPYPPGGPYPATTSSQYPSQPPVTTVGPSRDGTISEDTIRASLISAVSDKLRWRMKEEMDRAQAELNALKRTEEDLKKGHQKLEEMVTRLDQEVAEVDKNIELLKKKDEELSSALEKMENQSENNDIDEVIIPTAPLYKQILNLYAEENAIEDTIFYLGEALRRGVIDLDVFLKHVRLLSRKQFQLRALMQKARKTAGLSDLY
With B3 the “Z score of condensed fraction” value was 0.9844.

B4: TSHZ1 (protein, UniProt Q6ZSZ6 1-1077, looked up)
Teashirt homolog 1: MPRRKQQAPRRSAAYVPEEELKAAEIDEEHVEDDGLSLDIQESEYMCNEETEIKEAQSYQNSPVSSATNQDAGYGSPFSESSDQLAHFKGSSSREEKEDPQCPDSVSYPQDSLAQIKAVYANLFSESCWSSLALDLKKSGSTTSTNDASQKESSAPTPTPPTCPVSTTGPTTSTPSTSCSSSTSHSSTTSTSSSSGYDWHQAALAKTLQQTSSYGLLPEPSLFSTVQLYRQNNKLYGSVFTGASKFRCKDCSAAYDTLVELTVHMNETGHYRDDNRDKDSEKTKRWSKPRKRSLMEMEGKEDAQKVLKCMYCGHSFESLQDLSVHMIKTKHYQKVPLKEPVPAITKLVPSTKKRALQDLAPPCSPEPAGMAAEVALSESAKDQKAANPYVTPNNRYGYQNGASYTWQFEARKAQILKCMECGSSHDTLQQLTAHMMVTGHFLKVTTSASKKGKQLVLDPVVEEKIQSIPLPPTTHTRLPASSIKKQPDSPAGSTTSEEKKEPEKEKPPVAGDAEKIKEESEDSLEKFEPSTLYPYLREEDLDDSPKGGLDILKSLENTVSTAISKAQNGAPSWGGYPSIHAAYQLPGTVKPLPAAVQSVQVQPSYAGGVKSLSSAEHNALLHSPGSLTPPPHKSNVSAMEELVEKVTGKVNIKKEERPPEKEKSSLAKAASPIAKENKDFPKTEEVSGKPQKKGPEAETGKAKKEGPLDVHTPNGTEPLKAKVTNGCNNLGIIMDHSPEPSFINPLSALQSIMNTHLGKVSKPVSPSLDPLAMLYKISNSMLDKPVYPATPVKQADAIDRYYYENSDQPIDLTKSKNKPLVSSVADSVASPLRESALMDISDMVKNLTGRLTPKSSTPSTVSEKSDADGSSFEEALDELSPVHKRKGRQSNWNPQHLLILQAQFASSLRETTEGKYIMSDLGPQERVHISKFTGLSMTTISHWLANVKYQLRRTGGTKFLKNLDTGHPVFFCNDCASQFRTASTYISHLETHLGFSLKDLSKLPLNQIQEQQNVSKVLTNKTLGPLGATEEDLGSTFQCKLCNRTFASKHAVKLHLSKTHGKSPEDHLIYVTELEKQ
In the case of B4, the “Z score of condensed fraction” value is reported as -1.076.

B5: TRP63 (protein, UniProt Q9H3D4 1-680, looked up)
Tumor protein 63: MNFETSRCATLQYCPDPYIQRFVETPAHFSWKESYYRSTMSQSTQTNEFLSPEVFQHIWDFLEQPICSVQPIDLNFVDEPSEDGATNKIEISMDCIRMQDSDLSDPMWPQYTNLGLLNSMDQQIQNGSSSTSPYNTDHAQNSVTAPSPYAQPSSTFDALSPSPAIPSNTDYPGPHSFDVSFQQSSTAKSATWTYSTELKKLYCQIAKTCPIQIKVMTPPPQGAVIRAMPVYKKAEHVTEVVKRCPNHELSREFNEGQIAPPSHLIRVEGNSHAQYVEDPITGRQSVLVPYEPPQVGTEFTTVLYNFMCNSSCVGGMNRRPILIIVTLETRDGQVLGRRCFEARICACPGRDRKADEDSIRKQQVSDSTKNGDGTKRPFRQNTHGIQMTSIKKRRSPDDELLYLPVRGRETYEMLLKIKESLELMQYLPQHTIETYRQQQQQQHQHLLQKQTSIQSPSSYGNSSPPLNKMNSMNKLPSVSQLINPQQRNALTPTTIPDGMGANIPMMGTHMPMAGDMNGLSPTQALPPPLSMPSTSHCTPPPPYPTDCSIVSFLARLGCSSCLDYFTTQGLTTIYQIEHYSMDDLASLKIPEQFRHAIWKGILDHRQLHEFSSPSHLLRTPSSASTVSVGSSETRGERVIDAVRFTLRQTISFPPRDEWNDFNFDMDARRNKQQRIKEEGE
For B5, the “Z score of condensed fraction” value was -0.7687.

B6: TSC22D2 (protein, UniProt O75157 1-780, looked up)
TSC22 domain family protein 2: MSKMPAKKKSCFQITSVTTAQVATSITEDTESLDDPDESRTEDVSSEIFDVSRATDYGPEEVCERSSSEETLNNVGDAETPGTVSPNLLLDGQLAAAAAAPANGGGVVSARSVSGALASTLAAAATSAPAPGAPGGPQLAGSSAGPVTAAPSQPPTTCSSRFRVIKLDHGSGEPYRRGRWTCMEYYERDSDSSVLTRSGDCIRHSSTFDQTAERDSGLGATGGSVVVVVASMQGAHGPESGTDSSLTAVSQLPPSEKMSQPTPAQPQSFSVGQPQPPPPPVGGAVAQSSAPLPPFPGAATGPQPMMAAAQPSQPQGAGPGGQTLPPTNVTLAQPAMSLPPQPGPAVGAPAAQQPQQFAYPQPQIPPGHLLPVQPSGQSEYLQQHVAGLQPPSPAQPSSTGAAASPATAATLPVGTGQNASSVGAQLMGASSQPSEAMAPRTGPAQGGQVAPCQPTGVPPATVGGVVQPCLGPAGAGQPQSVPPPQMGGSGPLSAVPGGPHAVVPGVPNVPAAVPAPSVPSVSTTSVTMPNVPAPLAQSQQLSSHTPVSRSSSIIQHVGLPLAPGTHSAPTSLPQSDLSQFQTQTQPLVGQVDDTRRKSEPLPQPPLSLIAENKPVVKPPVADSLANPLQLTPMNSLATSVFSIAIPVDGDEDRNPSTAFYQAFHLNTLKESKSLWDSASGGGVVAIDNKIEQAMDLVKSHLMYAVREEVEVLKEQIKELVERNSLLERENALLKSLSSNDQLSQLPTQQANPGSTSQQQAVIAQPPQPTQPPQQPNVSSA
With B6 the “Z score of condensed fraction” value was -1.109.

B7: TULP2 (protein, UniProt O00295 1-520, looked up)
Tubby-related protein 2: MSQDNDTLMRDILGHELAAMRLQKLEQQRRLFEKKQRQKRQELLMVQANPDASPWLWRSCLREERLLGDRGLGNPFLRKKVSEAHLPSGIHSALGTVSCGGDGRGERGLPTPRTEAVFRNLGLQSPFLSWLPDNSDAELEEVSVENGSVSPPPFKQSPRIRRKGWQAHQRPGTRAEGESDSQDMGDAHKSPNMGPNPGMDGDCVYENLAFQKEEDLEKKREASESTGTNSSAAHNEELSKALKGEGGTDSDHMRHEASLAIRSPCPGLEEDMEAYVLRPALPGTMMQCYLTRDKHGVDKGLFPLYYLYLETSDSLQRFLLAGRKRRRSKTSNYLISLDPTHLSRDGDNFVGKVRSNVFSTKFTIFDNGVNPDREHLTRNTARIRQELGAVCYEPNVLGYLGPRKMTVILPGTNSQNQRINVQPLNEQESLLSRYQRGDKQGLLLLHNKTPSWDKENGVYTLNFHGRVTRASVKNFQIVDPKHQEHLVLQFGRVGPDTFTMDFCFPFSPLQAFSICLSSFN
In the case of B7, the “Z score of condensed fraction” value is reported as -0.5004.
